Results: patent publication US20210403591A1 (OSSIANIX, published 2021)

Assays:
Assay in all cases: FACS, transfected Expi293 cells
[1] = biological target: T1, mTfR-1 P335A on Expi293 cells (mouse, UniProt Q62351 1-763)
T1 construct: whole, on cells
Procedure: (§1) Transfected Expi293 cells were harvested and 2×10⁵ cells were transferred into V-bottom 96-well plate for staining. The cells were blocked in PBS containing 1% BSA (FACS buffer) for 10 min on ice, centrifuged to remove the buffer and 1 μl of 8D3-hFc formatted antibody, Clone C-hFc or Clone C variants 18 and 13 (Table 1), all at 1 mg/ml, was added to the wells. The cells were co-stained with mouse Tf-Alexa647 (Jackson ImmunoResearch). After 30 minutes on ice, the cells were washed and incubated with anti-hFc-PE (eBioscience) for 20 minutes on ice, washed again and resuspended in […] of FACS buffer containing 5 μl of propidium iodide (PI) to exclude dead cells from the analysis. The percentage of double-positive cells that stained with mTf and the tested antibody was determined on a CytoFlex cytometer (Beckman Coulter). The percentage of cells in the double positive quadrant (Q2) for WT mTfR-1 was used for normalization.

[2] = biological target: T2, mTfR-1 P332A on Expi293 cells (mouse, UniProt Q62351 1-763)
T2 construct: whole, on cells
T2 sequence (Q62351 whole entry P332A): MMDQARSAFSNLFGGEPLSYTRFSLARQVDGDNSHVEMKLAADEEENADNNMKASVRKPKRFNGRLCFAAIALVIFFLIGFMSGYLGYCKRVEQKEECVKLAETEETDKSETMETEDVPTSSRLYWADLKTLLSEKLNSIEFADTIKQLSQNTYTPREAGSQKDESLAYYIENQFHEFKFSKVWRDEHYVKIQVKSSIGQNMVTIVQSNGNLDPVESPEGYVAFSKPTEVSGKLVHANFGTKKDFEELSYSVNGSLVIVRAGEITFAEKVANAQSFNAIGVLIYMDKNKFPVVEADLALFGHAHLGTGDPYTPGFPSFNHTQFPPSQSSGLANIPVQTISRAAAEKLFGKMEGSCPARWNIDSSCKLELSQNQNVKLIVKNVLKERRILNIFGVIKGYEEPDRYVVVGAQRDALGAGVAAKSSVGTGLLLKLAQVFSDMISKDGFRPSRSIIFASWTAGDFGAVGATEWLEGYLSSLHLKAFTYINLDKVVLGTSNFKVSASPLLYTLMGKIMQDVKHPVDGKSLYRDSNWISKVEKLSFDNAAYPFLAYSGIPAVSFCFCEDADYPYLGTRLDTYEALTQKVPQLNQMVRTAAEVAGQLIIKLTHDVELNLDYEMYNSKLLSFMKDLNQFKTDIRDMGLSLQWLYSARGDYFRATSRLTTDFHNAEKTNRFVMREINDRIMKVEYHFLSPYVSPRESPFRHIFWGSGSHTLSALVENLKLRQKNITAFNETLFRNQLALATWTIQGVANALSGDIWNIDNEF
Procedure: as §1

[3] = biological target: T3, mTfR-1 S328A on Expi293 cells (mouse, UniProt Q62351 1-763)
T3 construct: whole, on cells
T3 sequence (Q62351 whole entry S328A): as the sequence (Q62351 whole entry P332A) above, with S328A, A332P counted along it
Procedure: as §1

[4] = biological target: T4, mTfR-1 K191A on Expi293 cells (mouse, UniProt Q62351 1-763)
T4 construct: whole, on cells
T4 sequence (Q62351 whole entry K191A): as the sequence (Q62351 whole entry P332A) above, with K191A, A332P counted along it
Procedure: as §1

[5] = biological target: T5, mTfR-1 K195A on Expi293 cells (mouse, UniProt Q62351 1-763)
T5 construct: whole, on cells
T5 sequence (Q62351 whole entry K195A): as the sequence (Q62351 whole entry P332A) above, with K195A, A332P counted along it
Procedure: as §1

[6] = biological target: T6, mTfR-1 N253A on Expi293 cells (mouse, UniProt Q62351 1-763)
T6 construct: whole, on cells
T6 sequence (Q62351 whole entry N253A): as the sequence (Q62351 whole entry P332A) above, with N253A, A332P counted along it
Procedure: as §1

[7] = biological target: T7, mTfR-1 L383A on Expi293 cells (mouse, UniProt Q62351 1-763)
T7 construct: whole, on cells
T7 sequence (Q62351 whole entry L383A): as the sequence (Q62351 whole entry P332A) above, with A332P, L383A counted along it
Procedure: as §1

[8] = biological target: T8, mTfR-1 I198A on Expi293 cells (mouse, UniProt Q62351 1-763)
T8 construct: whole, on cells
T8 sequence (Q62351 whole entry I198A): as the sequence (Q62351 whole entry P332A) above, with I198A, A332P counted along it
Procedure: as §1

[9] = biological target: T9, mTfR-1 S275A on Expi293 cells (mouse, UniProt Q62351 1-763)
T9 construct: whole, on cells
T9 sequence (Q62351 whole entry S275A): as the sequence (Q62351 whole entry P332A) above, with S275A, A332P counted along it
Procedure: as §1

[10] = biological target: T10, mTfR-1 N277A on Expi293 cells (mouse, UniProt Q62351 1-763)
T10 construct: whole, on cells
T10 sequence (Q62351 whole entry N277A): as the sequence (Q62351 whole entry P332A) above, with N277A, A332P counted along it
Procedure: as §1

[11] = biological target: T11, mTfR-1 S197A on Expi293 cells (mouse, UniProt Q62351 1-763)
T11 construct: whole, on cells
T11 sequence (Q62351 whole entry S197A): as the sequence (Q62351 whole entry P332A) above, with S197A, A332P counted along it
Procedure: as §1

[12] = biological target: T12, mTfR-1 I279A on Expi293 cells (mouse, UniProt Q62351 1-763)
T12 construct: whole, on cells
T12 sequence (Q62351 whole entry I279A): as the sequence (Q62351 whole entry P332A) above, with I279A, A332P counted along it
Procedure: as §1

[13] = biological target: T13, mTfR-1 Q200A on Expi293 cells (mouse, UniProt Q62351 1-763)
T13 construct: whole, on cells
T13 sequence (Q62351 whole entry Q200A): as the sequence (Q62351 whole entry P332A) above, with Q200A, A332P counted along it
Procedure: as §1

[14] = biological target: T14, mTfR-1 S326A on Expi293 cells (mouse, UniProt Q62351 1-763)
T14 construct: whole, on cells
T14 sequence (Q62351 whole entry S326A): as the sequence (Q62351 whole entry P332A) above, with S326A, A332P counted along it
Procedure: as §1

[15] = biological target: T15, mTfR-1 S225A on Expi293 cells (mouse, UniProt Q62351 1-763)
T15 construct: whole, on cells
T15 sequence (Q62351 whole entry S225A): as the sequence (Q62351 whole entry P332A) above, with S225A, A332P counted along it
Procedure: as §1

[16] = biological target: T16, mTfR-1 P325A on Expi293 cells (mouse, UniProt Q62351 1-763)
T16 construct: whole, on cells
T16 sequence (Q62351 whole entry P325A): as the sequence (Q62351 whole entry P332A) above, with P325A, A332P counted along it
Procedure: as §1

[17] = biological target: T17, mTfR-1 S329A on Expi293 cells (mouse, UniProt Q62351 1-763)
T17 construct: whole, on cells
T17 sequence (Q62351 whole entry S329A): as the sequence (Q62351 whole entry P332A) above, with S329A, A332P counted along it
Procedure: as §1

[18] = biological target: T18, mTfR-1 K226A on Expi293 cells (mouse, UniProt Q62351 1-763)
T18 construct: whole, on cells
T18 sequence (Q62351 whole entry K226A): as the sequence (Q62351 whole entry P332A) above, with K226A, A332P counted along it
Procedure: as §1

[19] = biological target: T19, mTfR-1 G254A on Expi293 cells (mouse, UniProt Q62351 1-763)
T19 construct: whole, on cells
T19 sequence (Q62351 whole entry G254A): as the sequence (Q62351 whole entry P332A) above, with G254A, A332P counted along it
Procedure: as §1

[20] = biological target: T20, mTfR-1 V382A on Expi293 cells (mouse, UniProt Q62351 1-763)
T20 construct: whole, on cells
T20 sequence (Q62351 whole entry V382A): as the sequence (Q62351 whole entry P332A) above, with A332P, V382A counted along it
Procedure: as §1

[21] = biological target: T21, mTfR-1 P324A on Expi293 cells (mouse, UniProt Q62351 1-763)
T21 construct: whole, on cells
T21 sequence (Q62351 whole entry P324A): as the sequence (Q62351 whole entry P332A) above, with P324A, A332P counted along it
Procedure: as §1

[22] = biological target: T22, mTfR-1 V230A on Expi293 cells (mouse, UniProt Q62351 1-763)
T22 construct: whole, on cells
T22 sequence (Q62351 whole entry V230A): as the sequence (Q62351 whole entry P332A) above, with V230A, A332P counted along it
Procedure: as §1

[23] = biological target: T23, WT mTfR-1 expressed on Expi293 cells (mouse, UniProt Q62351 1-763)
T23 construct: whole, on cells
T23 sequence (Q62351 whole entry): as the sequence (Q62351 whole entry P332A) above, with A332P counted along it
Procedure: as §1

[24] = biological target: T24, mTfR-1 T228A on Expi293 cells (mouse, UniProt Q62351 1-763)
T24 construct: whole, on cells
T24 sequence (Q62351 whole entry T228A): as the sequence (Q62351 whole entry P332A) above, with T228A, A332P counted along it
Procedure: as §1

[25] = biological target: T25, mTfR-1 Q274A on Expi293 cells (mouse, UniProt Q62351 1-763)
T25 construct: whole, on cells
T25 sequence (Q62351 whole entry Q274A): as the sequence (Q62351 whole entry P332A) above, with Q274A, A332P counted along it
Procedure: as §1

[26] = biological target: T26, mTfR-1 K380A on Expi293 cells (mouse, UniProt Q62351 1-763)
T26 construct: whole, on cells
T26 sequence (Q62351 whole entry K380A): as the sequence (Q62351 whole entry P332A) above, with A332P, K380A counted along it
Procedure: as §1

[27] = biological target: T27, mTfR-1 G199A on Expi293 cells (mouse, UniProt Q62351 1-763)
T27 construct: whole, on cells
T27 sequence (Q62351 whole entry G199A): as the sequence (Q62351 whole entry P332A) above, with G199A, A332P counted along it
Procedure: as §1

[28] = biological target: T28, mTfR-1 M202A on Expi293 cells (mouse, UniProt Q62351 1-763)
T28 construct: whole, on cells
T28 sequence (Q62351 whole entry M202A): as the sequence (Q62351 whole entry P332A) above, with M202A, A332P counted along it
Procedure: as §1

[29] = biological target: T29, mTfR-1 S255A on Expi293 cells (mouse, UniProt Q62351 1-763)
T29 construct: whole, on cells
T29 sequence (Q62351 whole entry S255A): as the sequence (Q62351 whole entry P332A) above, with S255A, A332P counted along it
Procedure: as §1

T1 sequence (Q62351 whole entry P335A): as the sequence (Q62351 whole entry P332A) above, with A332P, P335A counted along it

B1: Clone C variant 18 VNAR-hFc (Fc fusion, not shown: a dimerising Fc or GST)
chain: ARVDQTPQTITKETGESLTINCVLRDSNCALSSTYWYRKKSGSTNEENISKGGRYVETVNSGSKSFSLRINDLTVEDSGTYRCNVVQYPQYPNYFWCDVYGDGTAVTVN
notes: also called Clone C v18; Clone C var; 18
% double-positive cells vs WT [1]: 138%
% double-positive cells vs WT [2]: 218%
% double-positive cells vs WT [3]: 20%
% double-positive cells vs WT [4]: 25%
% double-positive cells vs WT [5]: 150%
% double-positive cells vs WT [6]: 10%
% double-positive cells vs WT [7]: 354%
% double-positive cells vs WT [8]: 79%
% double-positive cells vs WT [9]: 136%
% double-positive cells vs WT [10]: 155%
% double-positive cells vs WT [11]: 66%
% double-positive cells vs WT [12]: 206%
% double-positive cells vs WT [13]: 171%
% double-positive cells vs WT [14]: 129%
% double-positive cells vs WT [15]: 163%
% double-positive cells vs WT [16]: 175%
% double-positive cells vs WT [17]: 182%
% double-positive cells vs WT [18]: 91%
% double-positive cells vs WT [19]: 32%
% double-positive cells vs WT [20]: 241%
% double-positive cells vs WT [21]: 39%
% double-positive cells vs WT [22]: 59%
% double-positive cells vs WT [23]: 100%
% double-positive cells vs WT [24]: 45%
% double-positive cells vs WT [25]: 229%
% double-positive cells vs WT [26]: 162%
% double-positive cells vs WT [27]: 42%
% double-positive cells vs WT [28]: 153%
% double-positive cells vs WT [29]: 23%
